In patent US8962697:

T1: LAR-7009
T1 chain: PRRRRPRQITA

T2: LAR-7048
T2 chain: PRRICV

T3: LAR-7047
T3 chain: VFFRRQTA


How the values were obtained:
LAR-7009 = molecular target: T1, LAR-7009
LAR-7048 = molecular target: T2, LAR-7048
LAR-7047 = molecular target: T3, LAR-7047

Protein | hydrolysis of the peptide substrate, fragments by mass spectrometry (LAR-7009) | degradation of the control peptide (LAR-7048) | degradation of the control peptide (LAR-7047)
Matrix Metalloproteinase-9 (protein) MRTPRCGVPDLGRFQTFEGDLKWHHHNITYWIQNYSEDLPRAVIDDAFARAFALWSAVTPLTFTRVYSRDADIVIQFGVAEHGDGYPFDGKDGLLAHAFPPGPGIQGDAHFDDDELWSLGKGVVVPTRFGNADGAACHFPFIFEGRSYSACTTDGRSDGLPWCSTTANYDTDDRFGFCPSERLYTQDGNADGKPCQFPFIFQGQSYSACTTDGRSDGYRWCATTANYDRDKLFGFCPTRADSTVMGGNSAGELCVFPFTFLGKEYSTCTSEGRGDGRLWCATTSNFDSDKKWGFCPDQGYSLFLVAAHEFGHALGLDHSSVPEALMYPMYRFTEGPPLHKDDVNGIRHLYGPRPEPEPRPPTTTTPQPTAPPTVCPTGPPTVHPSERPTAGPTGPPSAGPTGPPTAGPSTATTVPLSPVDDACNVNIFDAIAEIGNQLYLFKDGKYWRFSEGRGSRPQGPFLIADKWPALPRKLDSVFEERLSKKLFFFSGRQVWVYTGASVLGPRRLDKLGLGADVAQVTGALRSGRGKMLLFSGRRLWRFDVKAQMVDPRSASEVDRMFPGVPLDTHDVFQYREKAYFCQDRFYWRVSSRSELNQVDQVGYVTYDILQCPED | Degradation of LAR-7009 ... produced specific fragment pick: 1121.66 corresponding to [..] sequence | No degradation was observed in these systems | No degradation was observed in these systems
Aureolysin (protein) AAATGTGKGVLGDTKDININSIDGGFSLEDLTHQGKLSAYNFNDQTGQATLITNEDENFVKDDQRAGVDANYYAKQTYDYYKNTFGRESYDNHGSPIVSLTHVNHYGGQDNRNNAAWIGDKMIYGDGDGRTFTNLSGANDVVAHELTHGVTQETANLEYKDQSGALNESFSDVFGYFVDDEDFLMGEDVYTPGKEGDALRSMSNPEQFGQPSHMKDYVYTEKDNGGVHTNSGIPNKAAYNVIQAIGKSKSEQIYYRALTEYLTSNSNFKDCKDALYQAAKDLYDEQTAEQVYEAWNEVGVE | – | No degradation was observed in these systems | No degradation was observed in these systems
